Experimental data as given in patent publication US20200317776A1 (published 2020).
Changes are numbered by the printed parent chain. Where two headings read alike, the source gives them in different places.

B1: AL2p-46 (antibody, V domains shown)
VH: QVQLVQSGAEVKKPGSSVKVSCKASGYAFSSDWMNWVRQAPGQGLEWMGRIYPGEGDTNYARKFQGRVTITADESTSTAYMELSSLRSEDTAVYYCARLLRNKPGESYAMDYWGQGTLVTVSS
VL: DVVMTQTPLSLSVTPGQPASISCRTSQSLVHSNQYTYLHWYLQKPGQSPQLLIYKVSNRVSGVPDRFSGSGSGTDFTLKISRVEAEDVGVYYCSQSTRVPYTFGQGTKLEIK
notes: Fab and IgG formats under one id
B2: AL2p-48 (antibody, V domains shown)
VH: B1 VH with Q65H
VL: B1 VL
notes: as for B1
B3: AL2p-49 (antibody, V domains shown)
VH: B1 VH with Q1E, Q65H
VL: B1 VL
notes: as for B1
B4: AL2p-50 (antibody, V domains shown)
VH: B1 VH with D32H, R62Q, Q65H, K103Q
VL: B1 VL with Q34A
notes: as for B1
B5: AL2p-51 (antibody, V domains shown)
VH: B1 VH with D32H, R62Q, Q65H, K103Q
VL: B1 VL
notes: as for B1
B6: AL2p-52 (antibody, V domains shown)
VH: B1 VH with Q1E, D32H, R62Q, Q65H, K103Q
VL: B1 VL with Q34A
notes: as for B1
B7: AL2p-53 (antibody, V domains shown)
VH: B1 VH with Q1E, D32H, R62Q, Q65H, K103Q
VL: B1 VL
notes: as for B1
B8: AL2p-54 (antibody, V domains shown)
VH: B1 VH with D32H, R62Q, Q65H
VL: B1 VL
notes: as for B1
B9: AL2p-55 (antibody, V domains shown)
VH: B1 VH with Q1E, D32H, R62Q, Q65H
VL: B1 VL with Q34A
notes: same VH/VL entries as AL2p-56; Fab and IgG formats under one id
B10: AL2p-56 (antibody, V domains shown)
VH: B1 VH with Q1E, D32H, R62Q, Q65H
VL: B1 VL with Q34A
notes: same VH/VL entries as AL2p-55; Fab and IgG formats under one id
B11: AL2p-57 (antibody, V domains shown)
VH: B1 VH with Q1E, D32H, R62Q, Q65H
VL: B1 VL
notes: as for B1
B12: AL2p-h19 (antibody, human IgG1, V domains shown)
VH: B1 VH with D32S, E55D, R62Q, V68A, E74T, K103Q
VL: B1 VL with V2I, T25S, Q34G, V60F
notes: humanized, human IgG1; Fab and IgG formats under one id
B13: AL2p-h28 (antibody, human IgG1, V domains shown)
VH: B1 VH with S16A, D32S, M48I, E55D, R62Q, V68A, I70L, E74T, Y95F, K103Q
VL: B1 VL with T25S, Q34G, V60F, V88L, Y92F
B14: AL2p-h29 (antibody, human IgG1, V domains shown)
VH: B1 VH with S16A, D32S, M48I, E55D, R62Q, V68A, I70M, E74T, K103Q
VL: B1 VL with T25S, Q34G, V60F, V88L, Y92F
B15: AL2p-h36 (antibody, human IgG1, V domains shown)
VH: EVQLLESGGGLVQPGGSLRLSCAASGYAFSSSWMNWVRQAPGKGLEWIGRIYPGDGDTNYAQKFQGRATISADTSKNTAYLQMNSLRAEDTAVYYCARLLRNQPGESYAMDYWGQGTLVTVSS
VL: B1 VL with T25S, Q34G, V60F, V88L, Y92F

How the values were obtained:
[1] = target: T1, human TREM2 expressed on cells (human, UniProt Q9NZC2 19-230); test: FACS, human DCs
T1 construct: BW5147.G.1.4 cells stably expressing human TREM2 together with Dap12, or endogenous TREM2 of primary human myeloid cells; also called huT2 BW; hTREM2 expressing cell line
T1 sequence: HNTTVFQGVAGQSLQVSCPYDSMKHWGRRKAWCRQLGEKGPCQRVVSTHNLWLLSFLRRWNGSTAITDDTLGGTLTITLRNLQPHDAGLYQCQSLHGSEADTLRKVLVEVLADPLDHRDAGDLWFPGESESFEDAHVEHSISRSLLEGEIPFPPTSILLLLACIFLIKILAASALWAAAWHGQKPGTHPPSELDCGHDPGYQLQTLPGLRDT
Description: (§1) To examine cell binding of affinity matured anti-TREM2 antibodies, both primary human monocyte derived dendritic cells and recombinant, human TREM2 expressing cells were utilized. For the latter, BW5147.G.1.4 (ATCC® TIB48™) and HEK293T cells stably expressing human TREM2 together with Dap12 using viral infection were established. For primary human monocyte derived dendritic cells, human monocytes were isolated from whole blood using RosetteSep Human monocyte enrichment cocktail (Stemcell technologies) and Ficoll centrifugation per manufacturer protocols. After lysing red blood cells with ACK lysing buffer, monocytes were resuspended in complete media (RPMI, 10% FBS, Pen/Strep, L-glutamine, HEPES, non-essential amino acid, Sodium pyruvate) with 100 ng/ml human GM-CSF (hu-GMCSF) and, human IL-4 (hu-IL-4) to differentiate dendritic cells for 6 days.
(§2) Cells were harvested by trypsinization (Hek293T) or scraping (BW and dendritic cells), washed in PBS, counted and plated on 96-well U bottom plates at […] cells/well. The plates were spun at 1,400 rpm for 3 minutes and primary TREM2 or control antibodies were added in FACS buffer (PBS+2% FBS) and incubated on ice for one hour. Cells were subsequently centrifuged as before and washed thrice with FACS buffer. Cells were then incubated with anti-human PE conjugated secondary antibody (BD Biosciences) in FACS buffer for 30 minutes on ice. Cells were again washed thrice with FACS buffer and analyzed on a BD FACS Canto or an Intellicyt Flow Cytometer. Binding was measured as mean fluorescence intensity in the APC channel.

[2] = target: T2, human TREM2 Fc fusion (entire TREM2 ECD; only one Fc arm fused to TREM2) (human, UniProt Q9NZC2 19-174); test: BLI, Fab, monovalent
T2 construct: also called huTREM2-Fc; recombinant hTREM2
T2 sequence: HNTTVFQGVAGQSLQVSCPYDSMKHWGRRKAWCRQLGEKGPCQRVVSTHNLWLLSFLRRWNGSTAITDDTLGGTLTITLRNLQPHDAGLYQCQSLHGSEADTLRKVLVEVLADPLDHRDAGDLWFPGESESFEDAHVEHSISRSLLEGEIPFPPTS

[3] = target: T3, cynomolgus monkey TREM2 Fc fusion (entire TREM2 ECD; only one Fc arm fused to TREM2) (cynomolgus monkey, UniProt Q9NZC2 19-174 (human entry)); test: BLI, Fab, monovalent
T3 construct: also called cyno TREM2-Fc
T3 chain: T2 sequence with A10E, W60R, L89F, F125V

[4] = target: T4, human TREM2/DAP12 fusion protein (human, UniProt O43914 41-113, limits assumed); test: cell-based or functional assay
[5] = target: T1, human TREM2 expressed on cells; test: cell-based or functional assay
[6] = target: T1, human TREM2 expressed on cells; test: FACS, hTREM2 BW cells
Description: as §1, §2

[7] = target: T2, human TREM2 Fc fusion (entire TREM2 …); test: BLI, Fab, monovalent; remark: listed apart in the source
Procedure: Briefly, IgG's were loaded on-line onto AHQ sensors. Sensors were equilibrated off-line in assay buffer for 30 minutes and then monitored on-line for 60 seconds for baseline establishment. For avid binding measurement, sensors with loaded IgGs were exposed to 100 nM antigen (human TREM2 Fc fusion using the entire TREM2 ECD; only one Fc arm was fused to TREM2) for 3 minutes, afterwards they were transferred to assay buffer for 3 minutes for off-rate measurement. Monovalent binding measurements were obtained by loading human TREM2 Fe fusion antigens to AHQ sensor and followed by exposure to 100 nM TREM2 antibody Fab. Kinetics data were fit using a 1:1 binding model in the data analysis software provided by ForteBio. Assay was run at room temperature (25° C.).

[8] = target: T4, human TREM2/DAP12 fusion protein; test: cell-based or functional assay; remark: listed apart in the source
[9] = target: T1, human TREM2 expressed on cells; test: FACS, hTREM2 BW cells; remark: listed apart in the source
Procedure: To examine cell binding of anti-TREM2 antibodies, recombinant, human TREM2-expressing BW5147.G.1.4 cells (ATCC® TIB48™) were established by stably expressing either mouse TREM2 or human TREM2 together with Dap12 using viral infection. Cells were harvested by scraping, washed in PBS, counted and plated on 96-well U bottom plates at 1)(10⁵ cells/well. The plates were spun at 1,400 rpm for 3 minutes and primary anti-TREM2 or control antibodies were added in FACS buffer (PBS H2% FBS) and incubated on ice for one hour. Cells were subsequently centrifuged as before and washed thrice with FACS buffer. Cells were then incubated with anti-human PE conjugated secondary antibody (BD Biosciences) in FACS buffer for 30 minutes on ice. Cells were again washed thrice with FACS buffer and analyzed on a BD FACS Canto. Binding was measured as mean fluorescence intensity in the APC channel.

T4 sequence (O43914 other isoform, or with tags, fused parts or gaps limits assumed): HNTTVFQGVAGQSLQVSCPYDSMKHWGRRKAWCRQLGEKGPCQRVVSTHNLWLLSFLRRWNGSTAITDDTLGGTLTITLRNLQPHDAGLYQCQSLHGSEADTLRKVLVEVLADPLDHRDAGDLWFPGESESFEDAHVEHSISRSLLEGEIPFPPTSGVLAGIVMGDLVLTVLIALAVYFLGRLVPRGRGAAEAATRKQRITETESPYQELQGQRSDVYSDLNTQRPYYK

Binder	MFI [1] [MFI]	Kd [2] [µM]	Kd [3] [µM]	BW Luc assay plate bound 7.3 nM IgG, FOC [4] [FOC]	BW Luc assay soluble 7.3 nM IgG, FOC [4] [FOC]	DC viability (AUC) [5] [AUC]	Mac viability (AUC) [5] [AUC]	Kd [6] [µM]	Kd [7] [µM]	Soluble luciferase activation at 10 µg/ml Fold over control [8] [fold over control]	cell binding (FOB) [9] [FOB]
B1	187	0.013	0.0161	1.64	2.98	597000	6040	0.00133	–	–	–
B2	408	0.0112	0.0149	3.25	3.65	770000	23600	0.0014	–	–	–
B3	413	0.0116	0.0141	3.12	3.28	754000	15100	0.00115	–	–	–
B4	235	0.0239	0.0361	1.19	2.07	286000	-10400	0.0018	–	–	–
B5	195	0.0212	0.0272	1.22	2.3	259000	-11200	0.00192	–	–	–
B6	224	0.027	0.028	1.3	1.75	283000	-13500	0.00242	–	–	–
B7	159	0.0211	0.0313	1.45	2.32	234000	-10200	0.00172	–	–	–
B8	235	0.0139	0.0168	1.53	2.17	570000	-7640	0.0023	–	–	–
B9	141	0.0185	0.0226	1.49	2.08	631000	-5280	0.00205	–	–	–
B10	155	0.0187	0.0188	1.51	2.02	643000	-7620	0.00201	–	–	–
B11	152	0.0178	0.0176	1.41	2.03	506000	-3560	0.00183	–	–	–
B12	–	–	–	–	–	–	–	–	0.193	4.97	87
B13	–	–	–	–	–	–	–	–	–	5.59	–
B14	–	–	–	–	–	–	–	–	–	5.8	–
B15	–	–	–	–	–	–	–	–	–	4.13	–
